Data published in PMC4790104 (Analytical chemistry, 2016).

T1: Psf2-SpA (S. cerevisiae (endogenous in budding …, UniProt P40359 1-213))
T1 sequence (looked up): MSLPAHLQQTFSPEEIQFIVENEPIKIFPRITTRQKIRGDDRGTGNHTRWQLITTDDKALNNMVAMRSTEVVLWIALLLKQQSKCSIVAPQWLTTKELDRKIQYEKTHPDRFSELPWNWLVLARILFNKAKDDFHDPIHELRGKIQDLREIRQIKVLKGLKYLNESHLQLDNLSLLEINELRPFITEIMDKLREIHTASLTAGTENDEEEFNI

B1: Psf1 (natural protein, UniProt Q12488 1-208, looked up)
chain: MYGDLGNKLVLEAKRTKQLYARSNQDVNLPMYHEDIIRNILKEVSNLRKNTEYLKEQQQLGMLDDKVAKCQYFVTLLCMERNKRCLLAYQRLRTDILDSMAWNNNGLDLMSSITFSQQDTNNLSHQEQEYLKEYCDLITDLKSGDLVDIDLSGSLVPPSDVFIDVRVLKDAGEIQTEYGVFNLIKDSQFFVRQSDVERLIQQGYLQKI
B2: Psf3 (natural protein, UniProt Q12146 1-194, looked up)
chain: MGYYDIDDVLADGTEFPCKFQYDIPGLGYLENNPGRPITKNTKLSLPLWLARILAIVGGDEALVDEEPVPFVELLPPDMFSTKVMNAIKTDPVALDLHSINSHFFSLAIKWIMLFSEKELANVVSELLLQRAQELNHHASSLSIDLNADSTGKNSANTNIATSTFLLKLEEMEKEIYKKSHESYKDTKRWMFKK
B3: Sld5 (natural protein, UniProt Q03406 1-294, looked up)
chain: MDINIDDILAELDKETTAVDSTKITQGSSSTTHRDANTIVGSSLDLNDKTQIYVSPQQDFSDLMKSWKNERCSPELLPYPHQLMKRLLNRISMQSQLIENISMGFLDMQNASNANPPMPNESKLPLLCMETELERLKFVIRSYIRCRLSKIDKFSLYLRQLNEDENSLISLTDLLSKDEIKYHDTHSLIWLKLVNDSILKYMPEELQAINDTEGSVNMIDEPDWNKFVFIHVNGPPDGKWNEDPLLQENEFGKPCYTVTIPDLKEEVELTIGSIYVMRYEVIRDLLRDDKVALI
B4: Nup85 (natural protein, UniProt P46673 1-744, looked up)
chain: MTIDDSNRLLMDVDQFDFLDDGTAQLSNNKTDEEEQLYKRDPVSGAILVPMTVNDQPIEKNGDKMPLKFKLGPLSYQNMAFITAKDKYKLYPVRIPRLDTSKEFSAYVSGLFEIYRDLGDDRVFNVPTIGVVNSNFAKEHNATVNLAMEAILNELEVFIGRVKDQDGRVNRFYELEESLTVLNCLRTMYFILDGQDVEENRSEFIESLLNWINRSDGEPDEEYIEQVFSVKDSTAGKKVFETQYFWKLLNQLVLRGLLSQAIGCIERSDLLPYLSDTCAVSFDAVSDSIELLKQYPKDSSSTFREWKNLVLKLSQAFGSSATDISGELRDYIEDFLLVIGGNQRKILQYSRTWYESFCGFLLYYIPSLELSAEYLQMSLEANVVDITNDWEQPCVDIISGKIHSILPVMESLDSCTAAFTAMICEAKGLIENIFEGEKNSDDYSNEDNEMLEDLFSYRNGMASYMLNSFAFELCSLGDKELWPVAIGLIALSATGTRSAKKMVIAELLPHYPFVTNDDIEWMLSICVEWRLPEIAKEIYTTLGNQMLSAHNIIESIANFSRAGKYELVKSYSWLLFEASCMEGQKLDDPVLNAIVSKNSPAEDDVIIPQDILDCVVTNSMRQTLAPYAVLSQFYELRDREDWGQALRLLLLLIEFPYLPKHYLVLLVAKFLYPIFLLDDKKLMDEDSVATVIEVIETKWDDADEKSSNLYETIIEADKSLPSSMATLLKNLRKKLNFKLCQAFM
B5: Nup145C (natural protein, UniProt P49687 606-1317, looked up)
chain: SIWGLVNEEDAEIDEDDLSKQEDGGEQPLRKVRTLAQSKPSDKEVILKTDGTFGTLSGKDDSIVEEKAYEPDLSDADFEGIEASPKLDVSKDWVEQLILAGSSLRSVFATSKEFDGPCQNEIDLLFSECNDEIDNAKLIMKERRFTASYTFAKFSTGSMLLTKDIVGKSGVSIKRLPTELQRKFLFDDVYLDKEIEKVTIEARKSNPYPQISESSLLFKDALDYMEKTSSDYNLWKLSSILFDPVSYPYKTDNDQVKMALLKKERHCRLTSWIVSQIGPEIEEKIRNSSNEIEQIFLYLLLNDVVRASKLAIESKNGHLSVLISYLGSNDPRIRDLAELQLQKWSTGGCSIDKNISKIYKLLSGSPFEGLFSLKELESEFSWLCLLNLTLCYGQIDEYSLESLVQSHLDKFSLPYDDPIGVIFQLYAANENTEKLYKEVRQRTNALDVQFCWYLIQTLRFNGTRVFSKETSDEATFAFAAQLEFAQLHGHSLFVSCFLNDDKAAEDTIKRLVMREITLLRASTNDHILNRLKIPSQLIFNAQALKDRYEGNYLSEVQNLLLGSSYDLAEMAIVTSLGPRLLLSNNPVQNNELKTLREILNEFPDSERDKWSVSINVFEVYLKLVLDNVETQETIDSLISGMKIFYDQYKHCREVAACCNVMSQEIVSKILEKNNPSIGDSKAKLLELPLGQPEKAYLRGEFAQDLMKCTYKI
B6: Nup120 (natural protein, UniProt P35729 1-1037, looked up)
chain: MACLSRIDANLLQYYEKPEPNNTVDLYVSNNSNNNGLKEGDKSISTPVPQPYGSEYSNCLLLSNSEYICYHFSSRSTLLTFYPLSDAYHGKTINIHLPNASMNQRYTLTIQEVEQQLLVNVILKDGSFLTLQLPLSFLFSSANTLNGEWFHLQNPYDFTVRVPHFLFYVSPQFSVVFLEDGGLLGLKKVDGVHYEPLLFNDNSYLKSLTRFFSRSSKSDYDSVISCKLFHERYLIVLTQNCHLKIWDLTSFTLIQDYDMVSQSDSDPSHFRKVEAVGEYLSLYNNTLVTLLPLENGLFQMGTLLVDSSGILTYTFQNNIPTNLSASAIWSIVDLVLTRPLELNVEASYLNLIVLWKSGTASKLQILNVNDESFKNYEWIESVNKSLVDLQSEHDLDIVTKTGDVERGFCNLKSRYGTQIFERAQQILSENKIIMAHNEDEEYLANLETILRDVKTAFNEASSITLYGDEIILVNCFQPYNHSLYKLNTTVENWFYNMHSETDGSELFKYLRTLNGFASTLSNDVLRSISKKFLDIITGELPDSMTTVEKFTDIFKNCLENQFEITNLKILFDELNSFDIPVVLNDLINNQMKPGIFWKKDFISAIKFDGFTSIISLESLHQLLSIHYRITLQVLLTFVLFDLDTEIFGQHISTLLDLHYKQFLLLNLYRQDKCLLAEVLLKDSSEFSFGVKFFNYGQLIAYIDSLNSNVYNASITENSFFMTFFRSYIIENTSHKNIRFFLENVECPFYLRHNEVQEFMFAMTLFSCGNFDQSYEIFQLHDYPEAINDKLPTFLEDLKSENYHGDSIWKDLLCTFTVPYRHSAFYYQLSLLFDRNNSQEFALKCISKSAEYSLKEIQIEELQDFKEKQHIHYLNLLIHFRMFEEVLDVLRLGHECLSDTVRTNFLQLLLQEDIYSRDFFSTLLRLCNAHSDNGELYLRTVDIKIVDSILSQNLRSGDWECFKKLYCFRMLNKSERAAAEVLYQYILMQADLDVIRKRKCYLMVINVLSSFDSAYDQWILNGSKVVTLTDLRDELRGL
B7: Seh1 (natural protein, UniProt P53011 1-349, looked up)
chain: MQPFDSGHDDLVHDVVYDFYGRHVATCSSDQHIKVFKLDKDTSNWELSDSWRAHDSSIVAIDWASPEYGRIIASASYDKTVKLWEEDPDQEECSGRRWNKLCTLNDSKGSLYSVKFAPAHLGLKLACLGNDGILRLYDALEPSDLRSWTLTSEMKVLSIPPANHLQSDFCLSWCPSRFSPEKLAVSALEQAIIYQRGKDGKLHVAAKLPGHKSLIRSISWAPSIGRWYQLIATGCKDGRIRIFKITEKLSPLASEESLTNSNMFDNSADVDMDAQGRSDSNTEEKAELQSNLQVELLSEHDDHNGEVWSVSWNLTGTILSSAGDDGKVRLWKATYSNEFKCMSVITAQQ
B8: Sec13 (natural protein, UniProt Q04491 1-297, looked up)
chain: MVVIANAHNELIHDAVLDYYGKRLATCSSDKTIKIFEVEGETHKLIDTLTGHEGPVWRVDWAHPKFGTILASCSYDGKVLIWKEENGRWSQIAVHAVHSASVNSVQWAPHEYGPLLLVASSDGKVSVVEFKENGTTSPIIIDAHAIGVNSASWAPATIEEDGEHNGTKESRKFVTGGADNLVKIWKYNSDAQTYVLESTLEGHSDWVRDVAWSPTVLLRSYLASVSQDRTCIIWTQDNEQGPWKKTLLKEEKFPDVLWRASWSLSGNVLALSGGDNKVTLWKENLEGKWEPAGEVHQ

These binders were tested against T1, Psf2-SpA (assay: native MS).

Binder | stoichiometry N
B1 | 1
B2 | 1
B3 | 1

The binders below were run against Nup84-HRV-SpA (S. cerevisiae (endogenous in budding …, UniProt P52891 1-726)) (assay: native MS).
Nup84-HRV-SpA (S. cerevisiae, sequence (P52891 whole entry): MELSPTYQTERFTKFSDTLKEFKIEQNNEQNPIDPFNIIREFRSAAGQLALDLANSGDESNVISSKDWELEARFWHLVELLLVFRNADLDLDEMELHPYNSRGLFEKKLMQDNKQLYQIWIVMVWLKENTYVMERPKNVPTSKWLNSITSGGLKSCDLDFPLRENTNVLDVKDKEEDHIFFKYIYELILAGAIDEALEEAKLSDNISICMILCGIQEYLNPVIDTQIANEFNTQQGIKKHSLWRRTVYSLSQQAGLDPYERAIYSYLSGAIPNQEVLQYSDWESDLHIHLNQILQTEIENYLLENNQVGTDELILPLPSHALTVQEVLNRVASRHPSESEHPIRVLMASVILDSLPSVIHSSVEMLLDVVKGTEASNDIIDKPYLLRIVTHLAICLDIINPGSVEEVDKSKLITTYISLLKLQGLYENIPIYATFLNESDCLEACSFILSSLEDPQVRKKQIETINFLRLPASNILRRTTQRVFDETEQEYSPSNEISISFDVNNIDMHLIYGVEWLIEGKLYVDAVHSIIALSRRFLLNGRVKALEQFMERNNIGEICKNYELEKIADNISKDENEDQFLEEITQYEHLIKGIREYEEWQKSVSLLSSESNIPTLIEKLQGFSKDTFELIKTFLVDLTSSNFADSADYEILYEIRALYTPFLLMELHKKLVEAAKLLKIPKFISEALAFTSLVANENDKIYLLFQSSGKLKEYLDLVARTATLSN

Binder | stoichiometry N
B4 | 1
B5 | 1
B6 | 1
B7 | 1
B8 | 1
